According to IntAct's records for PubMed 19074278:

B1: Calcium and calcium/calmodulin-dependent serine/threonine-protein kinase (Lotus japonicus), A0AAR7 (parent)
chain: MGYDQTRKLSDEYEISEILGRGGFSVVRKGTKKSGNEKTQVAIKTLRRLGSSPSGTGGGQKSTATVMGFPSLRQVSVSDALLTNEILVMRRIVENVSPHPNVIDLYDVCEDSNGVHLVLELCSGGELFDRIVAQDKYAETEAAAVVRQIAAGLEAVHKADIVHRDLKPENCLFLDSRKDSPLKIMDFGLSSVEEFTDPVVGLFGSIDYVSPEALSQGKITAKSDMWSLGVILYILLSGYPPFIAQNNRQKQQMIINGNFSFYEKTWKGITQSAKQLISSLLTVDPSKRPSAQELLSHPWVRGDKAKDEQMDPEIVSRLQSFNARRKLRAAAIASVWSSTIFLRTKKLRSLVGTYDLKEEEIESLRIHFKKICGNGDNATLSEFVEVLKAMKMPSLIPLAPRIFDLFDNNRDGTIDMREILCGFSSLKNSKGDDALRLCFQMYDTDRSGCITKEEVASMLCALPEECLPADITEPGKLDEIFDLMDANSDGKVTFEEFKAAMQRDSSLQDMLLSSLRPS
partner: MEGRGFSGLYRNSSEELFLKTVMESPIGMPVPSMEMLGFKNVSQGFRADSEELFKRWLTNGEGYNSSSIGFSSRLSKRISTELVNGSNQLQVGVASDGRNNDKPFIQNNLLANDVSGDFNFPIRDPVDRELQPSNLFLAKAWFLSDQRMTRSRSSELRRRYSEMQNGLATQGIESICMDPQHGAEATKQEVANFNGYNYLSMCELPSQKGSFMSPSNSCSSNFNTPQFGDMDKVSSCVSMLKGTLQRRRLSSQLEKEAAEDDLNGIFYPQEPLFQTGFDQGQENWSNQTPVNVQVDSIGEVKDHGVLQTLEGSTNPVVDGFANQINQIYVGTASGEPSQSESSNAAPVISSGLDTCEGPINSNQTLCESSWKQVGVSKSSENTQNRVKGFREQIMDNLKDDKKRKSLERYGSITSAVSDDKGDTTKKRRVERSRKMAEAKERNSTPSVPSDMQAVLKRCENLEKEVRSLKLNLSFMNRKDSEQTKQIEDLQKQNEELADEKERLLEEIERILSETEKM

Variants of: B1
Details: with cclop_lotja CYCLOPS

| Variant | effect of a mutation on the interaction |
| --- | --- |
| MGYDQTRKLSDEYEISEILGRGGFSVVRKETKKSGNEKTQVAIKTLRRLGSSPSGTGGGQKSTATVMGFPSLRQVSVSDALLTNEILVMRRIVENVSPHPNVIDLYDVCEDSNGVHLVLELCSGGELFDRIVAQDKYAETEAAAVVRQIAAGLEAVHKADIVHRDLKPENCLFLDSRKDSPLKIMDFGLSSVEEFTDPVVGLFGSIDYVSPEALSQGKITAKSDMWSLGVILYILLSGYPPFIAQNNRQKQQMIINGNFSFYEKTWKGITQSAKQLISSLLTVDPSKRPSAQELLSHPWVRGDKAKDEQMDPEIVSRLQSFNARRKLRAAAIASVWSSTIFLRTKKLRSLVGTYDLKEEEIESLRIHFKKICGNGDNATLSEFVEVLKAMKMPSLIPLAPRIFDLFDNNRDGTIDMREILCGFSSLKNSKGDDALRLCFQMYDTDRSGCITKEEVASMLCALPEECLPADITEPGKLDEIFDLMDANSDGKVTFEEFKAAMQRDSSLQDMLLSSLRPS [G30E] | disrupting interaction |
| MGYDQTRKLSDEYEISEILGRGGFSVVRKGTKKSGNEKTQVAIATLRRLGSSPSGTGGGQKSTATVMGFPSLRQVSVSDALLTNEILVMRRIVENVSPHPNVIDLYDVCEDSNGVHLVLELCSGGELFDRIVAQDKYAETEAAAVVRQIAAGLEAVHKADIVHRDLKPENCLFLDSRKDSPLKIMDFGLSSVEEFTDPVVGLFGSIDYVSPEALSQGKITAKSDMWSLGVILYILLSGYPPFIAQNNRQKQQMIINGNFSFYEKTWKGITQSAKQLISSLLTVDPSKRPSAQELLSHPWVRGDKAKDEQMDPEIVSRLQSFNARRKLRAAAIASVWSSTIFLRTKKLRSLVGTYDLKEEEIESLRIHFKKICGNGDNATLSEFVEVLKAMKMPSLIPLAPRIFDLFDNNRDGTIDMREILCGFSSLKNSKGDDALRLCFQMYDTDRSGCITKEEVASMLCALPEECLPADITEPGKLDEIFDLMDANSDGKVTFEEFKAAMQRDSSLQDMLLSSLRPS [K44A] | disrupting interaction |
| MGYDQTRKLSDEYEISEILGRGGFSVVRKGTKKSGNEKTQVAIATLRRLGSSPSGTGGGQKSTATVMGFPSLRQVSVSDALLTNEILVMRRIVENVSPHPNVIDLYDVCEDSNGVHLVLELCSGGELFDRIVAQDKYAETEAAAVVRQIAAGLEAVHKADIVHRDLKPENCLFLDSRKDSPLKIMDFGLSSVEEFTDPVVGLFGSIDYVSPEALSQGKITAKSDMWSLGVILYILLSGYPPFIAQNNRQKQQMIINGNFSFYEKIWKGITQSAKQLISSLLTVDPSKRPSAQELLSHPWVRGDKAKDEQMDPEIVSRLQSFNARRKLRAAAIASVWSSTIFLRTKKLRSLVGTYDLKEEEIESLRIHFKKICGNGDNATLSEFVEVLKAMKMPSLIPLAPRIFDLFDNNRDGTIDMREILCGFSSLKNSKGDDALRLCFQMYDTDRSGCITKEEVASMLCALPEECLPADITEPGKLDEIFDLMDANSDGKVTFEEFKAAMQRDSSLQDMLLSSLRPS [K44A;T265I] | disrupting interaction |
